Experimental data: paper doi:10.1101/742957
Several values for one entry are separate records, joined by “and”; a condition that tells them apart may be missing. Equal values may be shown once.

Biological target: Recombinant human transferrin (human) (UniProt P02787)
Assay: SEC-MALS

- percent dimer: 12%
- percent trimer: 2%
- stoichiometry N: 2 and 3
Substance: Recombinant human transferrin (from UniProt P02787 20-698) (natural protein)
